IntAct's records for PubMed 31515488

B1: Notch homolog 2 N-terminal-like protein A (Homo sapiens), Q7Z3S9 (parent)
chain: MCVTYHNGTGYCKCPEGFLGEYCQHRDPCEKNRCQNGGTCVAQAMLGKATCRCASGFTGEDCQYSTSHPCFVSRPCLNGGTCHMLSRDTYECTCQVGFTGKECQWTDACLSHPCANGSTCTTVANQFSCKCLTGFTGQKCETDVNECDIPGHCQHGGTCLNLPGSYQCQCLQGFTGQYCDSLYVPCAPSPCVNGGTCRQTGDFTFECNCLPETVRRGTELWERDREVWNGKEHDEN
partner: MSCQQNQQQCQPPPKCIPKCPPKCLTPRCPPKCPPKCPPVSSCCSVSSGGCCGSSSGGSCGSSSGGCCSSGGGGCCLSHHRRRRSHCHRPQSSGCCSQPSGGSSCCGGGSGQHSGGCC
B2: Vesicle transport through interaction with t-SNAREs homolog 1B (Homo sapiens), Q9UEU0 (parent)
chain: MASSAASSEHFEKLHEIFRGLHEDLQGVPERLLGTAGTEEKKKLIRDFDEKQQEANETLAEMEEELRYAPLSFRNPMMSKLRNYRKDLAKLHREVRSTPLTATPGGRGDMKYGIYAVENEHMNRLQSQRAMLLQGTESLNRATQSIERSHRIATETDQIGSEIIEELGEQRDQLERTKSRLVNTSENLSKSRKILRSMSRKVTTNKLLLSIIILLELAILGGLVYYKFFRSH
partner: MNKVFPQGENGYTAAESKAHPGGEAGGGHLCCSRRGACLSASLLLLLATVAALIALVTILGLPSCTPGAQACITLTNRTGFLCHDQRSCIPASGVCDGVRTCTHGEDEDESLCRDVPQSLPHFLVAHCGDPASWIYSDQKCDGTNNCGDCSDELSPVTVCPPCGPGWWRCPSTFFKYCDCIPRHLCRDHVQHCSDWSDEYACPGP
B3: Methylthioribulose-1-phosphate dehydratase (Homo sapiens), Q96GX9 (parent)
chain: MSGCDAREGDCCSRRCGAQDKEHPRYLIPELCKQFYHLGWVTGTGGGISLKHGDEIYIAPSGVQKERIQPEDMFVCDINEKDISGPSPSKKLKKSQCTPLFMNAYTMRGAGAVIHTHSKAAVMATLLFPGREFKITHQEMIKGIKKCTSGGYYRYDDMLVVPIIENTPEEKDLKDRMAHAMNEYPDSCAVLVRRHGVYVWGETWEKAKTMCECYDYLFDIAVSMKKVGLDPSQLPVGENGIV
B4: Transmembrane protein 79 (Homo sapiens), Q9BSE2 (parent)
chain: MTEQETLALLEVKRSDSPEKSSPQALVPNGRQPEGEGGAESPGAESLRVGSSAGSPTAIEGAEDGLDSTVSEAATLPWGTGPQPSAPFPDPPGWRDIEPEPPESEPLTKLEELPEDDANLLPEKAARAFVPIDLQCIERQPQEDLIVRCEAGEGECRTFMPPRVTHPDPTERKWAEAVVRPPGCSCGGCGSCGDREWLRAVASVGAALILFPCLLYGAYAFLPFDVPRLPTMSSRLIYTLRCGVFATFPIVLGILVYGLSLLCFSALRPFGEPRREVEIHRRYVAQSVQLFILYFFNLAVLSTYLPQDTLKLLPLLTGLFAVSRLIYWLTFAVGRSFRGFGYGLTFLPLLSMLMWNLYYMFVVEPERMLTATESRLDYPDHARSASDYRPRPWG
partner: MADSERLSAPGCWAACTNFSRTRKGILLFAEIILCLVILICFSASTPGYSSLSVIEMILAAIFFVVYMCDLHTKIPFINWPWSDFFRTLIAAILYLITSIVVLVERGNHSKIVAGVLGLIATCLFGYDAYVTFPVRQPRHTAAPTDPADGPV
B5: Glutathione S-transferase Mu 5 (Homo sapiens), P46439 (parent)
chain: MPMTLGYWDIRGLAHAIRLLLEYTDSSYVEKKYTLGDAPDYDRSQWLNEKFKLGLDFPNLPYLIDGAHKITQSNAILRYIARKHNLCGETEEEKIRVDILENQVMDNHMELVRLCYDPDFEKLKPKYLEELPEKLKLYSEFLGKRPWFAGDKITFVDFLAYDVLDMKRIFEPKCLDAFLNLKDFISRFEGLKKISAYMKSSQFLRGLLFGKSATWNSK
partner: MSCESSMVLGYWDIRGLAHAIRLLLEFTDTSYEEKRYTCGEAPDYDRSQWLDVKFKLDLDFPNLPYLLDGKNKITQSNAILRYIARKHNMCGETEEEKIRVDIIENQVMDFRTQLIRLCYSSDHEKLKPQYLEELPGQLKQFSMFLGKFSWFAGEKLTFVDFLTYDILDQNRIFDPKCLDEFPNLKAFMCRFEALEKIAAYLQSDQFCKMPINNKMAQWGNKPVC
B6: Beta-taxilin (Homo sapiens), Q8N3L3 (parent)
chain: MEANHSEQLSAERQSTPPGDSSSLPSHNGLEKEDGQDSPTPVQPPEKEASVHPDISEELNRQLEDIINTYGSAASTAGKEGSARASEQPENAESPDNEDGDCEETTEEAGREPVASGEPPTVKEPVSNKEQKLEKKILKGLGKEANLLMQNLNKLQTPEEKFDFLFKKYAELLDEHRTEQKKLKLLQKKQVQIQKEKDQLQGEHSRAILARSKLESLCRELQRHNKTLKEEALQRAREEEEKRKEITSHFQSTLTDIQGQIEQQSERNMKLCQENTELAEKLKSIIDQYELREEHLDKIFKHRELQQKLVDAKLEQAQEMMKEAEERHKREKEYLLNQAAEWKLQAKVLKEQETVLQAQLTLYSGRFEEFQSTLTKSNEVFATFKQEMDKTTKKMKKLEKDTATWKARFENCNKALLDMIEEKALRAKEYECFVMKIGRLENLCRALQEERNELHKKIRDAEISEKDDQSQHNSDEEPESNVSVDQEIDAEEVNSVQTAVKNLATAFMIIHHPESTPHQSKETQPEIGSSQESADAALKEPEQPPLIPSRDSESPLPPLTPQAEAEGGSDAEPPSKASNSPAGLGAETQCEGLPVGAQADQASWKPEAEASGQAPQAPTEASLQKMEADVPAPACAAEEHVAAMVPACEPSRQPPRAAAEELPVGASAGPQPRNVADTNLEGVD
partner: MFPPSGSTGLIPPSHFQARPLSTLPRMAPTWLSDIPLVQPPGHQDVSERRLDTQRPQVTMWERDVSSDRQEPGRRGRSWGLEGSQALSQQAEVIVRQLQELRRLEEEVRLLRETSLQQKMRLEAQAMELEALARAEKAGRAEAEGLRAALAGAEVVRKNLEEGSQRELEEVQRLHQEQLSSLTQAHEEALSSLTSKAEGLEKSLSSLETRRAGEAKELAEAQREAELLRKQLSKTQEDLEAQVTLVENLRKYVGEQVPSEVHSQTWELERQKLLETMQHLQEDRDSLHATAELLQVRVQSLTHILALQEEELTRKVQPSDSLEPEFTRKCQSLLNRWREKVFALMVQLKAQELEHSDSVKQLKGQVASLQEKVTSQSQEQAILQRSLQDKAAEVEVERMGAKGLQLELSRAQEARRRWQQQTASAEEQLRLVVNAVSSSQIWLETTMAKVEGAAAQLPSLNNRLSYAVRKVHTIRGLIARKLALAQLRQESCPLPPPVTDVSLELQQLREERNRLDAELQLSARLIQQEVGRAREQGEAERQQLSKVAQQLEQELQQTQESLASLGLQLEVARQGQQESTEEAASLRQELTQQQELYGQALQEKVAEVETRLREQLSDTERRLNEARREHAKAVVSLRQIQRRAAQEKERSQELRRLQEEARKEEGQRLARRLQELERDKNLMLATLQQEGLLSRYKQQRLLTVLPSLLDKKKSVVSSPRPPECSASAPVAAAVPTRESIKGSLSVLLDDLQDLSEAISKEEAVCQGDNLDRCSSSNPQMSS
B7: Protein BANP (Homo sapiens), Q8N9N5-2 (parent)
chain: MMSEHDLADVVQIAVEDLSPDHPVVLENHVVTDEDEPALKRQRLEINCQDPSIKSFLYSINQTICLRLDSIEAKLQALEATCKSLEEKLDLVTNKQHSPIQVPMVAGSPLGATQTCNKVRCAVPGRRQNTIVVKVPGQEDSHHEDGESGSEASDSVSSCGQAGSQSIGSNVTLITLNSEEDYPNGTWLGDENNPEMRVRCAIIPSDMLHISTNCRTAEKMALTLLDYLFHREVQAVSNLSGQGKHGKKQLDPLTIYGIRCHLFYKFGITESDWYRIKQSIDSKCRTAWRRKQRGQSLAVKSFSRRTPNSSSYCPSEPMMSTPPPASELPQPQPQPQALHYALANAQQVQIHQIGEDGQVQVIPQGHLHIAQVPQGEQVQITQDSEGNLQIHHVGQDGQVLQGAQLIAVASSDPAAAGVDGSPLQGSDIQVQYVQLAPVSDHTAGAQTAEALQPTLQPEMQLEHGAIQIQ
partner: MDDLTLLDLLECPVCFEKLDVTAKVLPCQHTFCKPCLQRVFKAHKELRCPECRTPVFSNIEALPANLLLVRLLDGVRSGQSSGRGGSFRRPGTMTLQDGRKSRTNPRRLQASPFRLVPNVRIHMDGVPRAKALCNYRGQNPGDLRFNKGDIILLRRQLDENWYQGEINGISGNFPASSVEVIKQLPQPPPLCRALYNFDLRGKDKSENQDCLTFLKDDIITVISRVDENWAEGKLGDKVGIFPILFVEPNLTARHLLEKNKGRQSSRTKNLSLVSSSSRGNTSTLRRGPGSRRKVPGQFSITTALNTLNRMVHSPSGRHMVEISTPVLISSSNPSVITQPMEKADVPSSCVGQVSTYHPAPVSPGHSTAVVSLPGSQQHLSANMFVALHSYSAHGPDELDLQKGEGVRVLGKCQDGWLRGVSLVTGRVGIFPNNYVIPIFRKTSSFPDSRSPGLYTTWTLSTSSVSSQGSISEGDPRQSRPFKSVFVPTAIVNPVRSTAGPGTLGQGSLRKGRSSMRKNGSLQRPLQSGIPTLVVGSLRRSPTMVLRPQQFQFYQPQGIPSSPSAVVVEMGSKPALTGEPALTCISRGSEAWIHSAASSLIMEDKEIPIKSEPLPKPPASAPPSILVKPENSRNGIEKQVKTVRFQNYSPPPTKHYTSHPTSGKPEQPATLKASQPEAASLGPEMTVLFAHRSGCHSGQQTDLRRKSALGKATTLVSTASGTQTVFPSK

Variants of: B1
Conditions: with lce1b_human LCE1B

| Variant | effect of a mutation on the interaction |
| --- | --- |
| A115T | with no effect |
| R74Q | with no effect |

Variants of: B2
Conditions: with lrad1_human LDLRAD1, Q5T700

| Variant | effect of a mutation on the interaction |
| --- | --- |
| R124Q | with no effect |
| R176H | with no effect |

Variants of: B3
Conditions: with ntaq1_human NTAQ1, Q96HA8

| Variant | effect of a mutation on the interaction |
| --- | --- |
| M181V | with no effect |
| G111A | with no effect |

Variants of: B4
Conditions: with plp2_human PLP2, Q04941

| Variant | effect of a mutation on the interaction |
| --- | --- |
| D144G | with no effect |
| S104T | with no effect |
| V147M | with no effect |

Variants of: B5
Conditions: with gstm3_human GSTM3, P21266

| Variant | effect of a mutation on the interaction |
| --- | --- |
| L179P | with no effect |

Variants of: B6
Conditions: with cchcr_human CCHCR1, Q8TD31

| Variant | effect of a mutation on the interaction |
| --- | --- |
| I527T | with no effect |

Variants of: B7
Conditions: with sh3r2_human SH3RF2, Q8TEC5

| Variant | effect of a mutation on the interaction |
| --- | --- |
| A162V | with no effect |
